{
  "source": "patent US20240043859A1",
  "about": "“HERBICIDE-RESISTANT PROTEIN, AND GENE AND USE THEREOF” (QINGDAO KINGAGROOT CHEMICAL COMPOUND CO., LTD., priority 2020, published 2024)",
  "molecules": {"B1": {"name": "QYD32: AAD-like enzyme, SEQ ID NO. 63 (protein)", "chain": "MSQMTFEPLSGPTFGARVHGVKLTAMDDAAFRELHDNWLEYGLLIVPEQFLTREEQIAFARRFGDLEFEIAEIGNMRDDGSLRPDDGSDEMMKINRGNMGWHHDSTYMPVQAKGAVFSAEIVPQEGGATGFADMRAAYDELDDAMKARIENLRAHHSLHHSQGKVGHKTKPVKDGKVNAGGTFGGYGLHDGPVSVRPLVKVHPETGRKNLLVGRHAYDIIGMSSEESEKLLQDLVDFACQPPRIYHHQWAPGDAVIWDNRRLMHQATPWPFDQARRMWHSRIAGDPATEAAMAA", "modifications": "Synthetic polypeptide, QYD32, D32"}, "B2": {"name": "QYD54: AAD-like enzyme, SEQ ID NO. 107 (protein)", "chain": "MARMFDIAPLDATFGAVVTGVKVTRIDDATWRDLHAAWLEYALLIFPGQFLSRAEQIAFAKRFGPLEFEMAPISNVKADGTIRIEADNDDVVKVLKGNMGWHADSTYMPVQAKGAVFSAEVVPGEGGRTGWADMRAAYDALDAARRVRVESLTAYHSLYYSQAKLGHQPKRGSDYSGYGFHDGPVPRRPLVKVHPETGRKSLLIGRHAHNIPGMDVAESTQFLESLVDFACQPPRIYHHQWTAGDAVVWDNRCLLHRATPWDMTKPRVMWHSRIAGDPVSEASLG", "modifications": "Synthetic polypeptide, QYD54, D54"}, "B3": {"name": "QYD21: AAD-like enzyme, SEQ ID NO. 41 (protein)", "chain": "MTTIETKPLTPCFGVEVSGMTLSEVSKGHDFARLRDLFEEHSALLFRAQEISNEEHMALAQLFGPIEDRKADERKPGEAFEVPEVSNVQKDGTTSGEMDLHTLNLKSNFLWHSDSTFLPTPALTNILIGRVVTTEGGATELASTRAAWAAMPEELKSRIRGRGIWHRYSHSRRKISPELAKLPMFNKWPDQHWSAVWPNPVNGREGLYIASHAFKVDGYDEAESQELLDELMAFCTQPEFTYAHQWNVGDVLIWDQRAVLHRGTPWPYEQPRTLSSICVSVTEADGIGSIRMPA", "modifications": "Synthetic polypeptide, QYD21, D21"}, "B4": {"name": "QYD35: AAD-like enzyme, SEQ ID NO. 69 (protein)", "chain": "MSARPFTVEPLPATFGARITGLDLAALDDATFAALYDAWLEYALLIFPGAGLSTAEQVTFARRFGDMEFDIAPLSNVRKDGSLRADDGTDDVVKVLRGNMGWHADSTYMPVQAKGAVFSAHVVPEEGGETGWADMRAAYDALDDDLRRRIEGLSAHHSLVHSQARLGHAHGTDSEYSGYGFHDEAPLRPLVKVHPETGRRSLLIGRHAYGIPGLEETASERLLDELVDFACRPPRVYHHRWQVGDVVLWDNRCLLHRACPWDMSRPRVMYHSRIAGDPVTEAGLAGQSEQPSASGS", "modifications": "Synthetic polypeptide, QYD35, D35"}, "B5": {"name": "QYD62: AAD-like enzyme, SEQ ID NO. 123; 100.00% identical to US20140141044-13793 (for medical field) (protein)", "chain": "MTIAIRQLHKHFVGEVSGLDLRKPLTADEARDIEAAMDKYAVLVFHDQDITDEQQMAFALNFGQREDARGGTVTKAKDYRLQSGLNDVSNLGKDGKPLAKDSRTHLFNLGNCLWHSDSSFRPIPAKFSLLSARVVNPKGGNTEFADMRAAYDALDDETKTEIEDLVCEHSLMYSRGSLGFTEYTDEEKEMFKPVLQRLVRTHPVHRRKSLYLSSHAGKVVGMSVPEGRLLLRDLNEHATQPEFVYVHKWKLHDLVMWDNRQTMHRVRRYDQSQPRDMRRATVAGTEPTVQQQAAE", "modifications": "Synthetic polypeptide, QYD62, D62"}, "B6": {"name": "QYD33: AAD-like enzyme, SEQ ID NO. 65 (protein)", "chain": "MSEHFDVEPLDASFGARITGLKLTEMSDAAFDALYETWLEHGLLLFPDQHMEPEAQVDVARRFGPLEVKLFAISNLKDDGSVRTSDEDDLVKILKGNMGWHHDSTYMPLQAKGAVFSAHVVPSEGGETGFADMRQAWDALDDDMKRRLEGLTALHSLHYSQMKAGFRRKEKDSEYIGYGLDERPPVRRQMVKVHPETGRKSLLVGRHAFGVSGMSEKESEEFVDGLNEFAGSGDWTYHHKWTPGEVVLWDNRCLMHRACPWDMTKPRVMYHSRIAGDPVSEAEVAA", "modifications": "Synthetic polypeptide, QYD33, D33"}, "B7": {"name": "QYD26: AAD-like enzyme, SEQ ID NO. 51 (protein)", "chain": "MSEFIYTLPSHNRAASYSHIRVTPTTGAIGADVENLDLTRLSDEGFAELRQALLAHKVIFIRDQALSVADLERVTQHLGEFGREPYVTCMADHPHVVHVVKEASEKAPFVFGGAWHTDWTFQERPPAFTLLYGHDIPPYGGDTCYANLALAYEWLSPGMQALLENLDAVHSPEMAYGVNAKHNALLENMAINYGSDTSADERSHPLVTRHPETGKKVLFINPAYTTGIKGLRTEESRPLLDYLFKLATSEAFTCRMRWRQGTLAIWDNRSTWHMPVADYHGMRREMFRTTVIGEVPSR", "modifications": "Synthetic polypeptide, QYD26, D26"}},
  "key": {"[1]": {"assay": "Chromogenic reaction of degrading herbicides in bacteria: 2,4-D", "assay_type": "cell-based, Escherichia coli", "details": "recombinant E. coli expressing the gene, 2,4-D added to the medium, red = phenols", "procedure": "(§1) To transform the plasmids to be tested, an AAD12-expressing plasmid and a blank control plasmid pET15b were respectively transformed into the protein expression E. coli BL21(DE3) strains. A monoclone was selected and inoculated in a 10 ml centrifuge tube with 3 ml LB medium, and cultivated at 37° C., 200 rpm for 6-8 hours. The culture medium was added with 0.1 mM IPTG and 2 mM α-ketoglutaric acid, and then 0.5 mM 2,4-D. The temperature was switched to 28° C. and the cultivation continued overnight. In the next morning, 200 μL of each bacteria solution was taken and centrifuged to precipitate thallus, 180 μL of the supernatant was taken and added in a 96-well plate, and 20 μL of borate buffer of pH 10 was added. Then the mixture was added with 2 μL of 8% potassium ferricyanide and mixed well, followed by adding 2 μL of 2% 4-aminoantipyrine, and placed at room temperature for 5 min to observe the color and detect the A510 value.\nThe bacteria solution also appeared red when 2,4-D was directly added into the medium of AAD12-expressing bacteria, as shown in FIG. 1.\n2,4-D was added into these bacteria solutions of AAD gene-expressing recombinant E. coli and cultivation was continued for color development."}, "[2]": {"assay_type": "cell-based, Escherichia coli", "procedure": "as §1, with “The culture medium was added with 0.1 mM IPTG and 2 mM α-ketoglutaric acid, and then 0.5 mM 2,4-D.” left out, “value. […]” for “value.”"}, "Arabidopsis thaliana": {"tested_on": "Arabidopsis thaliana", "assay": "Herbicide resistance of transgenic Arabidopsis thaliana seedlings on plate medium (root growth)", "assay_type": "in vivo", "details": "Arabidopsis overexpressing the gene", "procedure": "Expression in Arabidopsis thaliana was regulated by its AtUbi10 Arabidopsis thaliana ubiquitin promoter and the MAS (mannopine synthase) terminator. Hygromycin resistance gene (HygR=hpt) served as the selection marker.\nPreparation of Agrobacterium infection solution: An activated Agrobacterium (GV3101) monoclone was picked and inoculated in 30 ml YEP liquid medium [yeast powder 10 g/L, tryptone 10 g/L, NaCl 5 g/L, 25 mg/L Rifampicin and 50 mg/L Kanamycin], shaking-cultured at 200 rmp/min, 28° C. overnight until the OD600 was about 1.0-1.5, then centrifuged at 6000 rmp/min for 10 min to collect the bacteria, and the supernatant was discarded. Arabidopsis thaliana infection solution (sucrose 50 g/L, Silwet L-77 300 μL/L, no need to adjust pH) was used to resuspend the cells to OD600=0.8 for later use.\nGenetic transformation of Arabidopsis thaliana by flower dipping: Before transformation of Arabidopsis thaliana plants, attentions were paid to whether the plants were growing well, the inflorescences were abundant, and no stress response occurred. The first transformation was performed when plants were about 20 cm high. Plants could be properly watered if the soil was dry. The grown siliques were cut off with scissors the day before transformation. The inflorescences of the plants to be transformed were soaked in the above-mentioned Agrobacterium solution for 30 seconds to 1 minute, which was stirred gently during the period. And a layer of liquid film should appear on the infiltrated plant. The transformed plants were cultured in a dark environment for 24 hours, and then taken out and grown in a normal light environment. A second transformation could be performed in the same way a week later.\nSeeds were treated with disinfectant for 5 min, washed with sterile water for 5 times and then one part was spread on MS transgenic screening medium (containing 30 μg/mL hygromycin, 100 μg/mL carbenicillin) to screen transgenic seedlings, and the other part was spread on MS medicated medium [containing 250 μg/mL Cefotaxime sodium and 0.3 μM 2,4-D] to screen herbicide-resistant seedlings at mean time. The petri dish spread with seeds was placed at 4° C. for vernalization for 3 days, and taken out to a illumination incubator for cultivation (temperature of 22° C., 16 hours of light, 8 hours of darkness, light intensity of 100-150 μmol/m^2/s, humidity of 75%). After one week, it was observed that the roots of the wild-type control seedlings were not elongated and their growth was inhibited, while the transgenic seedlings had normal root growth, showing drug resistance. The transgenic positive seedlings and herbicide-resistant seedlings were photographed and transplanted into small pots filled with soil for cultivation.\nThe transgenic lines with the nine vectors, pQY2309, pQY2310, pQY2311, pQY2312, pQY2313, pQY2314, pQY2315, pQY2316 and pQY2317, overexpressing AAD gene in the T2 generation were further tested on plate medium for their resistance to 2,4-D, 2,4-DB sodium and MCPA herbicide. Two events were tested for each transformant."}},
  "note": "“Also recorded” adds a separate entry of the source.",
  "data": [
    {"molecule": "B1", "values": [
      {"measurement": "Chromogenic reaction of degrading herbicides in bacteria: 2,4-D", "setting": "[1]", "result": "Yes"},
      {"measurement": "Chromogenic reaction of degrading herbicides in bacteria: 2,4-D", "setting": "[1]; listed as D32", "result": "red reactions"},
      {"measurement": "Chromogenic reaction of degrading herbicides in bacteria: MCPA", "setting": "[2]", "result": "NO"},
      {"measurement": "Resistance of transgenic Arabidopsis thaliana: 2,4-D", "setting": "Arabidopsis thaliana", "result": "Yes"}
    ]},
    {"molecule": "B2", "values": [
      {"measurement": "Chromogenic reaction of degrading herbicides in bacteria: 2,4-D", "setting": "[1]", "result": "Yes"},
      {"measurement": "Chromogenic reaction of degrading herbicides in bacteria: 2,4-D", "setting": "[1]; listed as D54", "result": "could degrade 2,4-D; also recorded: capable of degrading 2,4-D"},
      {"measurement": "Chromogenic reaction of degrading herbicides in bacteria: MCPA", "setting": "[2]", "result": "Yes"}
    ]},
    {"molecule": "B3", "values": [
      {"measurement": "Chromogenic reaction of degrading herbicides in bacteria: 2,4-D", "setting": "[1]", "result": "Yes"},
      {"measurement": "Chromogenic reaction of degrading herbicides in bacteria: 2,4-D", "setting": "[1]; listed as D21", "result": "could degrade 2,4-D; also recorded: capable of degrading 2,4-D"},
      {"measurement": "Chromogenic reaction of degrading herbicides in bacteria: MCPA", "setting": "[2]", "result": "Yes"},
      {"measurement": "Resistance of transgenic Arabidopsis thaliana: 2,4-D", "setting": "Arabidopsis thaliana", "result": "Yes"}
    ]},
    {"molecule": "B4", "values": [
      {"measurement": "Chromogenic reaction of degrading herbicides in bacteria: 2,4-D", "setting": "[1]", "result": "Yes"},
      {"measurement": "Chromogenic reaction of degrading herbicides in bacteria: 2,4-D", "setting": "[1]; listed as D35", "result": "red reactions"},
      {"measurement": "Chromogenic reaction of degrading herbicides in bacteria: MCPA", "setting": "[2]", "result": "NO"}
    ]},
    {"molecule": "B5", "values": [
      {"measurement": "Chromogenic reaction of degrading herbicides in bacteria: 2,4-D", "setting": "[1]", "result": "Yes"},
      {"measurement": "Chromogenic reaction of degrading herbicides in bacteria: 2,4-D", "setting": "[1]; listed as D62", "result": "could degrade 2,4-D; also recorded: capable of degrading 2,4-D"},
      {"measurement": "Chromogenic reaction of degrading herbicides in bacteria: MCPA", "setting": "[2]", "result": "Yes"}
    ]},
    {"molecule": "B6", "values": [
      {"measurement": "Chromogenic reaction of degrading herbicides in bacteria: 2,4-D", "setting": "[1]", "result": "Yes"},
      {"measurement": "Chromogenic reaction of degrading herbicides in bacteria: 2,4-D", "setting": "[1]; listed as D33", "result": "red reactions"},
      {"measurement": "Chromogenic reaction of degrading herbicides in bacteria: MCPA", "setting": "[2]", "result": "NO"}
    ]},
    {"molecule": "B7", "values": [
      {"measurement": "Chromogenic reaction of degrading herbicides in bacteria: 2,4-D", "setting": "[1]", "result": "Yes"},
      {"measurement": "Chromogenic reaction of degrading herbicides in bacteria: 2,4-D", "setting": "[1]; listed as D26", "result": "red reactions"},
      {"measurement": "Chromogenic reaction of degrading herbicides in bacteria: MCPA", "setting": "[2]", "result": "Yes"},
      {"measurement": "Resistance of transgenic Arabidopsis thaliana: 2,4-D", "setting": "Arabidopsis thaliana", "result": "Yes"}
    ]}
  ]
}
